This series in a line: yeast display, Sf9 membrane polyspecificity reagent, FACS + sequencing; frameworks hold sequencing errors. In short, it runs like this:
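Galactose induction of a Saccharomyces cerevisiae BJ5465 synthetic nanobody display library ran 36–48 hours. The cells were then stained for 1 hour at 4 °C with 10% biotinylated, detergent-solubilized Sf9 membrane reagent, pulled down on streptavidin microbeads and FACS-sorted into low and high (top ~1%) gates on expression and reagent-binding fluorescence. Labels for polyreactivity follow the gate of origin.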
With “QVQLGESGGGLGQAGGSLSLSCAATGSIFPYNPMGWYRQAPGKERELVATINSRGGRTYYADSVKGRFTISRDNAKNTVYLQMNSLKPEDTAVYYCARYYSSALRYGYWGQGTQVTVSS”, the “polyreactivity (PSR sort gate)” value was “low polyreactivity”. Regarding “QVQLVESGGGLVQAGGSLRLSCSASGRTFSAYAMGWDRPAPGKERELVARITSVDSTNYADSVKGRFTISRDNAKNSVYLKMNSLTPEDTAVYYCNATFCYPFFDYDDYWGQGTQVTVSS”, the “polyreactivity (PSR sort gate)” value is on record as “low polyreactivity”. Next, “QVQLVESGGGLVQAGGSLRLSCAASGSISGLYAMGWYRQAPGKERELVARIRWRGDSTYYADSVKGRFTISRDNAKNTVYLQMNSLNPEDTAVYYCAASAYSGKVNKYNYWGQGTQVTVSS”: “high polyreactivity”; “QVQLVESGGGLVEAGGSLRLSCAASGIFRYYAMGWYRQAPGKERELVASITGGGSTYYADSVKGRFTISRDNAKNTVYLQMNSLKPEDTAVYYCNTAGAYYRWTPYYYWGQGTQVTVSS”: “high polyreactivity”. For the sequence “QFQLVESGGGLVQAGGSLRLSCAASGFTFRRVTAIGWYRQAPGKERELVAGINSGDITYYADSVKGRFTFSRDNAKNTVYLQMNSLIPEDTAVYYCAARVVYGYGHNDYWGQGTQVTVSS”, the “polyreactivity (PSR sort gate)” value is reported as “low polyreactivity”. For “QVQLVESGGGLVQARGSLRLSCAASGFIFPSYAMGWYRQAPGKERELDAAITWNGGSTYYADSVKGRFTISRDNAKNTVYLQMNSLKPEDTAVYYCNKYYYYRDYGYWVQGTQVTVSS”, the “polyreactivity (PSR sort gate)” value is given as “high polyreactivity”. Next, “QVQLVEPGGGLVHAGGSLRLSCAASGRIYYVYAMGWYRQAPGKERELVAGIRSGGSTNYADSVKGRFTISRDNAKNTVYLQMNSLNPEDTAVYYCAVQSYGALSPQLVYRRYDYWGQGTQVTVSS”: “high polyreactivity”. Next, “QVQLVESGGGLVQAGGSLRLSCAASGRTFRVYAMGWYRQAPGKERELVAAITFNGGSTYYADSVKGRFTISRDNAKNTVYLQMNSLKPEDTAVYYCAAATRRSYDHVQMYYWGQGTQVTVSS”: “high polyreactivity”; “QVQLVESGGGLVQAGGSLRLSCAASGRIFRGYTMGWYRQAPGKEREFVAAITANGGRTYYADSVKGRFTISRDTAKNTVYLKMNRLKPEDTAVYYCNARTYTYRGSFDYWVQGTQVTVSS”: “high polyreactivity”; “QVQLVESVGGLVQAGCSLRLSCAASGSTFEVYAMGWYRQAPGKESELVATITWSGGSTYYADSVKGRFTISRDNAKTTVYLQMNSLKPEDTAVYYCNAVIRYYFWGKYYLYYYWGQGTQVTVSS”: “high polyreactivity”. Next, “QVHLVDSGGGLVQAGGSLSLRCAASRRSFVPYAMGWYSQGPGKEREFLADITWSTCTSTYYADSEKGRFTISRDNAKNTVYLHMNSLKPEDTAVYYCAVDIWWPNWYYIYWGQGTQVTLSS”: “low polyreactivity”. On to “QVQLVESGGGLGQAGGTLRLTCAASGSIFRTYAMGWYRQAPGKERELVAAITWSGGRTYYADSVKGRFTISRDNATNTVYLPMISLKPDDTAVYYCNAVYLAYGGDYWGQGTQVTVSS”, for which the “polyreactivity (PSR sort gate)” value was “high polyreactivity”.

In the case of “QVQLVESGGGLVQAGGSLRLSCAASGATFWRYAMGWYRQAPGKERELVAAISTSGGSTRYADSVKGRFTISRDNAKNTVYLQMNSLKPEDTAVYYCNAQHLARMDYWGQGTQVTVSS”, the “polyreactivity (PSR sort gate)” value is on record as “high polyreactivity”. The result for “QVQLVESGGGLVQAGGSLRLSCAASGFIFARYAMGWYRQAPGKERELVASITGRGTSTRYADSVKGRFTISRDNAKNTVYLQMNSLKPEDTAVFYCNAARLSYSWVPSEMDYWGQGTQVTVSS” reads “high polyreactivity”; that for “QVQLVESGGGLVQAGGSLRLSCAASGFIFTQYAMGWYRQAPGKERELVAAISTSGGRTFYADSVKGRFTISRDNAKNTVYLQMNSLKPEDTAVYYCGARPGYLYDYWGQGTQVTVSS”, “high polyreactivity”; that for “QVQLVESGGGLVQAGGSLRLSCAASGSTFVDNAMGWYRQAPGKERELVAAISSSGGTTYYADSVKGRFTISRDNAKNTVYLQMNSLKPEDTAVYYCAARRRSGTYWRSANDYWGQGTQVTVSS”, “high polyreactivity”. Next, “QVQLVESGGGLVQAGGSLRLSCAASGSIFVLNAMGWSRQAPGKETELVAAISYSGTGTYYADSVKGRFTISRDNAKNTVYLQMNSLKPEDTAVYDCAADYYYRYRIYDYWGQGTQVTLSS”: “low polyreactivity”; “QVQHVESGRGLVQAGGSLRLSCDASGFTFRSYPIGWYRHAPGKERELVAGITWRGGRTYYADSVKGRFTISRDNAKNTVYLQMNSLKPEDTAVYNCAKLYRYIYGGMDYWGQGTQVTVSS”: “high polyreactivity”. As for “QVQLVESGGGLVQAGGSLRLSCAASGSTFLKNAMGWYRQAPGKERELVAAISYSTTRTYYAVSVKGRFTISRDNAKNTVYLQINSLKPEDTAVYYCAARYDRSSKRNYWGQGTQVTVSS”, the “polyreactivity (PSR sort gate)” value was “low polyreactivity”. Regarding “QVQLVESGGGLVQAGGRLRLSCAASGSIFSYYAMGWYRQAPGKERELVAAITANGGSTYYADSVKGRFTISRDNAKNTVYLQMNSLKPADTAVYYCAADYYWGYDCGQGTQVTVSS”, the “polyreactivity (PSR sort gate)” value was “low polyreactivity”. The result for “QVQLVESGGGLVQAGGSLRLSCAASGFYYGMGWYRQAPGKERELVAAISRGGSTYYADSVKGRFTISRDNAKNTVYLQMNSLKPEDTAVYYCAATYRSLYGSRMGYWGQGTQVTVSS” reads “high polyreactivity”; that for “QVQLVESVGGLVQAGGSLRLSCAASGRIFEVYVMGWYRQAPGKERELVAAISTGGSTYYADSVKGRFTISRDNAKNTVYLQMNSLKPEDTAVYYCAARKTRRYGSGHDYWGQGTQVTVSS”, “high polyreactivity”; that for “QVQLVESSGGLVQAGGSLSLSCADSGIIFYRYAMGWYIQAQGQERELVAAITWSGVSTSYADSVKGRFTISRDNAKNTVSIQMNSLKPEDTAVYYCNKDPGTLYGDMDSWGQGTQVTVSS”, “low polyreactivity”. The result for “QVQLVESGGGLVQAGGSLRLSCAASGSTFSRNAMGWYRQAPGKERELVASISWSGARTYYADSVKGRFTISRDNAKNTVYLQMNSLKPEDTAVYYCAKFRSYRGPYNYWGQGTQVTVSS” reads “high polyreactivity”; that for “QVQLVESGGGLVQAGGSLRLSCAASGSTFGYYAMGWYRQAPGKERELVAAISASGSRTYYADSVKGRFTISRDNAKNTVYSQMNSQKPEDTAVYYCPALQYRRKIPTAYAGDYWGQGTQVTVSS”, “high polyreactivity”. Next, “QVQLQESGGGLVQAGGSLRLSCAASGYISTFSAEMGWYRQAPGKERELVASIAPGCTTSYADSVKGRFTISRDNAKNTVYLQMNSLKPEDTAVYYCAVDYTLPASFGYWGQGTQVTVSS”: “high polyreactivity”; “QVQLVESGGGLVQAGGSLRLSCASSGRIFYGYAMVWYRQAPGKERELVAAIRWYGGNTYYADSVKGRFTISRDNAKNTVYLQMNSLKPEDTAVYYCAARAYYARFVMGYWGQGTQVSVSS”: “high polyreactivity”; “QVQLVESGGGLVQAGGSLRLSCAASGFIFTVNAMGWYRQAPGKDRELVAAITSGGNTYYADSVKGRFTISRDNAKNTVYLQMNSLKPEDTAVYYCNAVFYTWSPYGTTVRSYGYWGQGTQVTVSS”: “high polyreactivity”. As for “QVQLVESGGGLVQAGGSLRLSCAASGFIFASNAMGWYRQAPGKERELVASISRSGGNTYYADSVKGRFTISRDNAKNTVYLQMNSLKPEDTAVYYCAAEYIFHYYDIFDYWGQGTQVTVSS”, the “polyreactivity (PSR sort gate)” value was “high polyreactivity”.

On to “QVQHVESGGGLVQAGGSLRLSCAASGSIIDIYAMGWYRQAPGKERELVASISGGAGSTNYADSVKGRFTISRDNAKNSVYLQMNSLKPEDTGVDDFAAVVYVPVYFQHKFDVEYEYWGQGTQVTVSS”, for which the “polyreactivity (PSR sort gate)” value is on record as “low polyreactivity”.

The values above are taken from the nanobody polyreactivity screen of Harvey et al. (2022).
